{"source": "patent US20200392244A1", "about": "(CRESCENDO BIOLOGICS, published 2020)", "binders": {"B1": {"name": "single VH domain antibody 13.1 (VHH)", "VHH": "EVQLVESGGGSVQPGGSLRLSCAASGFTFSDYWMTWVRQVPGKGLEWVANIKQDGSEKYYVDSVKGRFTISRDNAKNSLYLQMNSLRAEDTAVYYCARDRGGAVALYHNGMDMGGQGTTVTVSS", "notes": "human single VH domain; C-terminal His(-myc) tag not included; also called family 13"}, "B2": {"name": "single VH domain antibody 5.1 (VHH)", "VHH": "QVQLVESGGGVVQPGRSLRLSCAASGFTFNNYGMHWVRQAPGKGLEWVAIISYDGNTKYYTDSVKGRFTISRDNSKNTLYLQMNSLRVEDTAVYYCAKGLWPSDVWGQGTTVTVSS"}, "B3": {"name": "single VH domain antibody 2.1 (VHH)", "VHH": "EVQLVESGGGVVQPGRSLRLSCAASGFSFSGYGMHWVRQAPGKGLEWVAYISYDGSNKYYADSVKGRFTISRDNSKNTLYLQMNSLRAEDTAVYYCAKDPAWGLRLGESSSYDFDIWGQGTMVTVSS"}, "B4": {"name": "single VH domain antibody 2.13 (VHH)", "VHH": "EVQLVESGGGVVQPGRSLRLSCAASGFSFSGYGLHWVRQAPGKGLEWVAYISYDASNKYYADNVKGRFTISRDNSKNTLYLQMNSLRAEDTAVYYCAKDPAWGLRLGESSSYDFDIWGQGTMVTVSS", "notes": "variant of 2.1; human single VH domain; C-terminal His(-myc) tag not included"}, "B5": {"name": "single VH domain antibody 2.12 (VHH)", "VHH": "EVQLVESGGGVVQPGRSLRLSCAASGFSFSGYGMHWVRQAPGKGLEWVAYISYDKSNKYYADKVKGRFTISRDNSKNTLYLQMNSLRAEDTAVYYCAKDPAWGLRLGESSSYDFDIWGQGTMVTVSS", "notes": "as for B4"}, "B6": {"name": "3.2 (VHH)", "VHH": "EVQLVESGGGVVQPGRSLRLSCAASGFPLISYGMNWVRQAPGKGLDWVAFISYDGSNKYYADSVKGRFTISKDNSKNTLYLQMNSLRAEDTAVYYCAKDRIVGARVPDAFDIWGQGTMVTVSS"}, "B7": {"name": "single VH domain antibody 3.1 (VHH)", "VHH": "EVQLVESGGGVVQPGRSLRLSCAASGFPLISYGMHWVRQAPGKGLEWVAFMTYDGSNRYYADSVKGRFTISRDNSKNTLYLQMNSLRDEDTALYYCARDRIVGGRVPDAFDIWGQGTMVTVSS", "notes": "human single VH domain; C-terminal His(-myc) tag not included; also called VH3.1; family 3 parent"}}, "key": {"[1]": {"biological_target": "T1, cynomolgus PSMA on CHO cells (cynomolgus, UniProt A0A2K5VNZ0 1-750)", "T1 construct": "whole, on cells; also called cynoPSMA CHO; Cyno PSMA CHO", "test": "FMAT screen, Cyno PSMA CHO cells"}, "[2]": {"biological_target": "T1, cynomolgus PSMA on CHO cells", "test": "cell-based or functional assay"}, "[3]": {"biological_target": "T2, human PSMA on cells (CHO human PSMA, DU145 PSMA, LNCaP) (human, UniProt Q04609 1-750)", "T2 sequence (Q04609 whole entry)": "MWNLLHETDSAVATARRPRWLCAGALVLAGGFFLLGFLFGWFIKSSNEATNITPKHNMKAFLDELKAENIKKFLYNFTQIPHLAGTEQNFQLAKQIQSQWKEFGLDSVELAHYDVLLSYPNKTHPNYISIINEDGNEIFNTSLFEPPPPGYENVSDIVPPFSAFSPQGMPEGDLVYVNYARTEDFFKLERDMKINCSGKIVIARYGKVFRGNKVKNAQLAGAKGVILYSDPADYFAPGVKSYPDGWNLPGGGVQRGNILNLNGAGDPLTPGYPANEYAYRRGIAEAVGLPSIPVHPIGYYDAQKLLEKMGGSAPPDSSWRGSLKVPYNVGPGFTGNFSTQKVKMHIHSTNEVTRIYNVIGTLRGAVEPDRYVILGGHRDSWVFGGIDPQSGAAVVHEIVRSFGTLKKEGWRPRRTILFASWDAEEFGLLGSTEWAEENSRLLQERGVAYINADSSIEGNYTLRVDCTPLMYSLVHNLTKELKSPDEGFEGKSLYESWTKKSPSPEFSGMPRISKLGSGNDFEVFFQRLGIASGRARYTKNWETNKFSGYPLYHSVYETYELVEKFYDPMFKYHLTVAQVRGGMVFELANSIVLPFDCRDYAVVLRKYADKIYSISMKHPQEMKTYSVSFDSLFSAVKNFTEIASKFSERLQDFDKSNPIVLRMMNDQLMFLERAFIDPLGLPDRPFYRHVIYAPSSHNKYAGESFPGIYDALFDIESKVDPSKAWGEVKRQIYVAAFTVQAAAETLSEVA", "test": "cell-based or functional assay"}, "[4]": {"biological_target": "T1, cynomolgus PSMA on CHO cells", "test": "cell-based or functional assay", "remark": "listed apart in the source"}, "[5]": {"biological_target": "T2, human PSMA on cells (CHO human PSMA, …)", "test": "FMAT Mirrorball direct cell binding of purified His-tagged VH on CHO cells expressing human PSMA [upper left panel huPSMA CHO]"}, "[6]": {"biological_target": "T2, human PSMA on cells (CHO human PSMA, …)", "test": "FMAT Mirrorball direct cell binding of purified His-tagged VH on DU145 cells expressing PSMA [panel Du145 PSMA]"}, "[7]": {"biological_target": "T2, human PSMA on cells (CHO human PSMA, …)", "test": "FMAT Mirrorball direct cell binding of purified His-tagged VH on LNCaP cells [panel LNCap]"}, "[8]": {"biological_target": "T3, recombinant human PSMA (R&D, cat. no. 4234-ZN) (human, UniProt Q04609 44-750)", "T3 construct": "Bought protein; also called rhPSMA; Recombinant PMSA", "T3 sequence (Q04609 44-750 limits assumed)": "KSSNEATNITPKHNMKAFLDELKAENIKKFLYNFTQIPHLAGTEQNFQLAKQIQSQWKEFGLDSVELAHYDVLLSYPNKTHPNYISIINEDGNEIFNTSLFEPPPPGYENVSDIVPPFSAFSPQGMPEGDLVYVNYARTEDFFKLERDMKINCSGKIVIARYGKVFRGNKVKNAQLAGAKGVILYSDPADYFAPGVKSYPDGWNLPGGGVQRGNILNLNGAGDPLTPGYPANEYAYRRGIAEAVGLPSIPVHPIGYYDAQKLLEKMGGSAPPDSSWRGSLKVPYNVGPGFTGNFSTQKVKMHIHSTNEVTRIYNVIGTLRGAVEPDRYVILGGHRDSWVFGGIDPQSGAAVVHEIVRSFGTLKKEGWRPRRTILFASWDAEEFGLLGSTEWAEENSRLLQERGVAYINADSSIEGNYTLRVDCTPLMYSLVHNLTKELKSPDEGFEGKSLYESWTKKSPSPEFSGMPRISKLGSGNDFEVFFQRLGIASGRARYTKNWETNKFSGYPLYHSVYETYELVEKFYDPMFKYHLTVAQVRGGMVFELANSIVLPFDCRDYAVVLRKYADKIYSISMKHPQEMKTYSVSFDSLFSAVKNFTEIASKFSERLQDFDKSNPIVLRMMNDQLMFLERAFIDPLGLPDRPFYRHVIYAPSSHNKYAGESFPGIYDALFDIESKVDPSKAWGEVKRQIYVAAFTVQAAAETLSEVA", "test": "HTRF binding assay with 3 nM biotinylated PSMA; VH 7 days in cynomolgus serum at 37 C"}}, "data": [{"binder": "B1", "values": [{"measurement": "binding result", "setting": "[1]", "value": "no binding"}]}, {"binder": "B2", "values": [{"measurement": "EC50 (read off the curve), pHrodo Green internalisation", "setting": "[2]", "value": "~2e-09", "unit": "M"}]}, {"binder": "B3", "values": [{"measurement": "IC50 (read off the curve), His-ZAP killing", "setting": "[3]", "value": "~0.04", "unit": "nM"}, {"measurement": "IC50 (read off the curve), His-ZAP killing", "setting": "[4]", "value": "~0.1", "unit": "nM"}]}, {"binder": "B4", "values": [{"measurement": "EC50 (read off the curve)", "setting": "[5]", "value": "~0.1", "unit": "nM"}, {"measurement": "EC50 (read off the curve)", "setting": "[6]", "value": "~0.2", "unit": "nM"}]}, {"binder": "B5", "values": [{"measurement": "EC50 (read off the curve)", "setting": "[7]", "value": "~0.03", "unit": "nM"}, {"measurement": "EC50 (read off the curve)", "setting": "[5]", "value": "~0.1", "unit": "nM"}, {"measurement": "EC50 (read off the curve)", "setting": "[6]", "value": "~0.2", "unit": "nM"}]}, {"binder": "B6", "values": [{"measurement": "EC50 (read off the curve), pHrodo Green internalisation", "setting": "[2]", "value": "~1e-09", "unit": "M"}]}, {"binder": "B7", "values": [{"measurement": "EC50 (read off the curve)", "setting": "[8]", "value": "~1", "unit": "nM"}]}]}
